Reference: publication PMC4253074 (Journal of molecular biology, 2014)

T1: PDE6 α-subunit (Pα), catalytic subunit of bovine rod photoreceptor phosphodiesterase (bovine, UniProt P11541 1-859)
T1 sequence (looked up): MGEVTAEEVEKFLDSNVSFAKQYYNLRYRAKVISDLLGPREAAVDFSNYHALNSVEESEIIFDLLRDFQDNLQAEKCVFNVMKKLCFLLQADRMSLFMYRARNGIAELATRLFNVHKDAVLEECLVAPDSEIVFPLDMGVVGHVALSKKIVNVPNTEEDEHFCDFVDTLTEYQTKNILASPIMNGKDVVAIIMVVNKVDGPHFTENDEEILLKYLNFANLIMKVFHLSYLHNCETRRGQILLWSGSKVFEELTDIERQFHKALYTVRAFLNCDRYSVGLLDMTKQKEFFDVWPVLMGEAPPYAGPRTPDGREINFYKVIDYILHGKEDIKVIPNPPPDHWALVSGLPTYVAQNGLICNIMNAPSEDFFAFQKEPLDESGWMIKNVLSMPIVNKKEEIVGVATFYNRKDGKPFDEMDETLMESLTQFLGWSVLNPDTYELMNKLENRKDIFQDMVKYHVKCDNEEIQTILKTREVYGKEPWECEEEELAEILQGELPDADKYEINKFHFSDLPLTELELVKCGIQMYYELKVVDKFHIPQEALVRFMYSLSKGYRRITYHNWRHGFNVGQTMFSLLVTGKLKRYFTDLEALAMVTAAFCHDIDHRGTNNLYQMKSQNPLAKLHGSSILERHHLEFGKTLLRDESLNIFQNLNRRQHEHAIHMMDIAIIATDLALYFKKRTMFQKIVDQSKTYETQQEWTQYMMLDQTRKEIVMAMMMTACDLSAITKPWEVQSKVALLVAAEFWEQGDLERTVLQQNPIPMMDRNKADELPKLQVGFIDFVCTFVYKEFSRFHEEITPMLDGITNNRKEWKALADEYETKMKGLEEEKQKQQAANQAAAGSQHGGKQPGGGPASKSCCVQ

T2: PDE6 β-subunit (Pβ), catalytic subunit of bovine rod photoreceptor phosphodiesterase (bovine, UniProt P23439 1-853)
T2 sequence (looked up): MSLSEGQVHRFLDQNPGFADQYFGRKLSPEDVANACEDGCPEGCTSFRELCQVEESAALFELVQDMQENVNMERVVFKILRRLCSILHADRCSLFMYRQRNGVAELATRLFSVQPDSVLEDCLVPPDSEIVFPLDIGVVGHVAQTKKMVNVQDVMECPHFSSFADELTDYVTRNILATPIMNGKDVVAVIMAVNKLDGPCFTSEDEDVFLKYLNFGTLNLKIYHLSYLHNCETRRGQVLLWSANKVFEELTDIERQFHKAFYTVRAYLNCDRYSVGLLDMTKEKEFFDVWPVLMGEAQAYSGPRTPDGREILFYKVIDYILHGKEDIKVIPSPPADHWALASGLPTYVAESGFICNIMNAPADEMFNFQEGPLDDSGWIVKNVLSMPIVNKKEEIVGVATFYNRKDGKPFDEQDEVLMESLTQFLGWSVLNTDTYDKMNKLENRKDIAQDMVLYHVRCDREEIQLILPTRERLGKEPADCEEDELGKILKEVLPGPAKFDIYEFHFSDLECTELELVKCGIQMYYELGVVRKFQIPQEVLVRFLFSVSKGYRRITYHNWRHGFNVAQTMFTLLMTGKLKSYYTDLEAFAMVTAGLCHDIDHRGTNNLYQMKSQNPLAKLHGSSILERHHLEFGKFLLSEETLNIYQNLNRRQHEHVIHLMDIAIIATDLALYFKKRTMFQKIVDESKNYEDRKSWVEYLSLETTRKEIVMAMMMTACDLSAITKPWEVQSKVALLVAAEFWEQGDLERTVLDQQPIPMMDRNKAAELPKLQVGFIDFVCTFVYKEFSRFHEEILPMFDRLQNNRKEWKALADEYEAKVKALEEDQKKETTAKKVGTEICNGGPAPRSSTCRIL


How the values were obtained:
Assay in all cases: cross-linking
[1] = target: PDE6 catalytic dimer (Pαβ) (bovine, UniProt P11541 1-859; P23439 1-853)
[2] = target: T1, PDE6 α-subunit (Pα), catalytic subunit …
[3] = target: T2, PDE6 β-subunit (Pβ), catalytic subunit …

Binder	binding result [1]	binding result [2]	binding result [3]
PDE6 inhibitory γ-subunit (Pγ), endogenous, in the purified PDE6 holoenzyme (natural protein, bovine, UniProt P04972 1-87, looked up) MNLEPPKAEIRSATRVMGGPVTPRKGPPKFKQRQTRQFKSKPPKKGVQGFGDDIPGMEGLGTDITVICPWEAFNHLELHELAQYGII	binds	–	–
Pγ 73C-MBP (natural protein, bovine, UniProt P04972 1-87, looked up, 4-(N-maleimido)benzophenone (MBP) on Cys73) MNLEPPKAEIRSATRVMGGPVTPRKGPPKFKQRQTRQFKSKPPKKGVQGFGDDIPGMEGLGTDITVISPWEACNHLELHELAQYGII	–	binds	binds

Continued, values first:

binding result [1]	binding result [2]	binding result [3]	Binder
binds	–	–	wild-type Pγ, recombinant (Pγ 1–87) (natural protein, bovine, UniProt P04972 1-87, looked up) MNLEPPKAEIRSATRVMGGPVTPRKGPPKFKQRQTRQFKSKPPKKGVQGFGDDIPGMEGLGTDITVICPWEAFNHLELHELAQYGII
–	–	binds	Pγ 30C-MBP (natural protein, bovine, UniProt P04972 1-87, looked up, 4-(N-maleimido)benzophenone (MBP) on Cys30) MNLEPPKAEIRSATRVMGGPVTPRKGPPKCKQRQTRQFKSKPPKKGVQGFGDDIPGMEGLGTDITVISPWEAFNHLELHELAQYGII
